# Results from the supplement of paper PMC11865577.
# Experiments:
# Assay in all cases: pull-down binding Z-score (relative to library population); higher = stronger binding
# Details in all cases: RNA library: Library-2
# [1] = tested on: TO-3-N3 (biotin conjugate)
# Summary of the method: (§1)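 Heat-folded RNA library (1 μg, Cy5 or Cy3 end label, phosphate/NaCl/KCl buffer) was captured for 60 min at 25 °C on streptavidin beads displaying 100 pmol of biotin-conjugated small molecule, then washed three times. The bound fraction, eluted in hot SDS, was hybridised to a DNA barcode microarray at 55.5 °C for 20 h. Z-scores for binding were taken against the library mean and standard deviation after beads-only subtraction and trimmed averaging of replicate barcoded probes.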
# [2] = tested on: TO-3-N3-2 (biotin conjugate)
# Summary of the method: as §1
# TO-N3 (biotin conjugate) = tested on: TO-N3 (biotin conjugate)
# Summary of the method: as §1
# [3] = tested on: TO-N3-2 (biotin conjugate)
# Summary of the method: as §1
Sequence,pull-down binding Z-score [1],pull-down binding Z-score [2],pull-down binding Z-score (TO-N3 (biotin conjugate)),pull-down binding Z-score [3]
AUGUACAUCUUCUUUGCAUCAUUUUAUUAUGUAUGGAAAAGUUAUGUGCAU,-1.16,-0.603,-1.36,-1.44
GUUGUUACUCACAAUUUUGACUUCACUUUUAGUUUUAGUCCAGAGUACUCAAU,-0.826,-0.324,-0.965,-0.924
UGCUUUGGUGUAAAGAUGGCCAUGUAGAAACAUUUUACCCAAAAUUACAAUCUAGUCAAGCGUGGCAACCGGGUGUUGCUAUGCCUAAUCUUUACAAAAUGCA,-0.104,-0.00692,0.0858,0.252
ACCAUUUAAUGAUGGU [DMSMaPseq_invitro_SARS-CoV-2_Motif_383],-0.648,-0.365,-1.21,-1.7
AUGGUUAUCUUACUUCUUCUUCUAAAACACCUGAAGAACAUUUUAUUGAAACCAU,-0.93,0.0544,-1.19,-1.01
AAAGUGCAGUGAAAAGAACAAUCAAGGGUACACACCACUGGUUGUUACUCACAAUUUUGACUUCACUUU,-0.381,-0.0864,-0.172,0.0106
UAGCUGGUUUUGCUA [SHAPE_invivo_SARS-CoV-2_Motif_257],0.71,0.105,0.281,-0.612
UACCAGACUAUAACACAUAUAAAAAUACGUGUGAUGGUA [DMSMaPseq_invitro_SARS-CoV-2_Motif_221],-0.929,-0.385,-1.03,-1.24
AUCCGAUUUACAGGAU,-0.684,-0.525,-0.894,-1.16
GGGCAAGCUGUCUCAAAUGUCC [IAV_invivo_PA_3_Motif_10+IAV_invivo_PA_3_Motif_10],-0.508,-0.226,-0.543,0.0264
AAGUUUGUUCGCAUUCAACCAGGACAGACUU [DMSMaPseq_invitro_SARS-CoV-2_Motif_187],1.1,0.0441,1.09,-0.349
UACCGAUGCCAUAGAGGUG [IAV_invivo_PB1_2_Motif_30+IAV_invivo_PB1_2_Motif_30],-0.183,-0.0397,-0.0495,0.166
ACAGAAUGCUGU,-0.821,-0.472,-1.14,-1.19
UAAAUAAGGGACACUUUGAUGGACAACAGGGUGAAGUACCAGUUUCUAUCAUUAAUAACACUGUUUACACAAAAGUUGAUGGUGUUGAUGUAGAAUUGUUUG,-0.266,0.0932,-0.00789,-0.111
UAGAAUAGACGGUGACAUGGUACCACAUAUAUCACGUCAACGUCUUACUA [SHAPE_invivo_SARS-CoV-2_Motif_261],-0.605,-0.164,-0.562,-0.953
GUUCUCAGUACAGAGAAAUCUCCCUUUUGACAGAACAACCAUUAUGGCAGCAUUCAAUGGGAAUACAGAGGGGAGAACAUCUGACAUGAGGAC [IAV_invivo_NP_5_Motif_22+IAV_invivo_NP_5_Motif_22],0.104,-0.129,1.12,1.23
UCCUGUGGUAAUUUUAAAGUUACAAAAGGA,-0.823,-0.424,-0.795,-0.669
CAGACUUUGUGAAUGAGUUUUACGCAUAUUUGCGUAAACAUUUCUCAAUGAUGAUACUCUCUG,-0.682,-0.222,-0.747,-0.783
GGAGGAGGAGGAGGAGGAGGAGGAGGAGGAGGAGGAGGAGGAGGAGGA [G4_r(GGA)16],7.15,8.95,5.89,3.35
GUUGAUGAGCCUGAAGAACAUGUCCAAAUUCACACAAUCGACGGUUCAUCCGGAGUUGUUAAUCCAGUAAUGGAACCAAUUUAUGAUGAACCGACGACGAC,0.104,-0.311,0.862,0.77
UAAUUCUUGGCUUAUGUGGUUAAUAAUUA [DMSMaPseq_invitro_SARS-CoV-2_Motif_139],-0.0604,-0.0756,-0.293,-0.709

Sequence,pull-down binding Z-score [1],pull-down binding Z-score [2],pull-down binding Z-score (TO-N3 (biotin conjugate)),pull-down binding Z-score [3]
CCCUGAACACAAUGACCAAAGAUGCUGAGAGAGGG [IAV_invivo_PB1_2_Motif_12+IAV_invivo_PB1_2_Motif_12],-0.218,0.103,0.143,0.884
CUGCCUAUAUGGAAG,-0.492,-0.364,-0.773,-0.645
AUGGCCCCGAUUUCAGCUAU [SHAPE_invivo_SARS-CoV-2_Motif_151],-0.51,-0.281,-0.668,-0.0238
CCACAUUUUCACCGAGGCCACGCGGAGUACGAUCGAGUGUACAGUGAACAAUGCUAGG,-0.147,0.563,0.772,1.34
CCCCAAAAGAAAUUAUCUUCUUAGAGGG,-0.165,-0.623,0.286,0.109
GUUGUAGACGGUUGUAAUUCAUCAACUUGUAUGAUGUGUUACAAACGUAAUAGAGC [SHAPE_invivo_SARS-CoV-2_Motif_153],-0.547,-0.153,-0.562,-0.564
ACGUACUGCCACUAAAGCAUACAAUGUAACACAAGCUUUCGGCAGACGU,0.386,0.565,0.464,0.871
GGUCCAGAACAAACCCAAGGAAAUUUUGGGGACC,0.213,0.197,0.0164,-0.00332
CUAAGUCACUAACUGAGAAUAAAUAUUCUCAAUUAGAUGAAGAG,-1.02,-0.135,-1.15,-0.981
CAACGGUACUAUUACCGUUG,-0.275,-0.426,-0.553,-1.59
GGGGUGUACAUCAAUACUGCCUU [IAV_invivo_PA_3_Motif_19+IAV_invivo_PA_3_Motif_19],1.11,0.332,1.4,0.595
UGCGAGAAAUGCUUGCA [SHAPE_invitro_SARS-CoV-2_Motif_85],1.12,-0.0133,0.918,-0.155
GGAGGGCCUUCUACGGAAGGAGUGCC [IAV_invivo_M1_M2_7_Motif_16+IAV_invivo_M1_M2_7_Motif_16],0.296,-0.0132,0.646,1.57
UGUGACCUUCAAAAUUAUGGUGAUAGUGCAACAUUACCUAAAGGCAUAAUGAUGAAUGUCGCA,-0.431,-0.486,-0.621,-1.05
AGUACACCUUUGAAAAAGGUGACU,-0.883,-0.572,-1.22,-1.09
GUUUAUGAAAAACUCAAACCCGUCCUUGAUUGGCUUGAAGAGAAGUUUAAGGAAGGUGUAGAGUUUCUUAGAGAC,0.121,-0.241,0.416,-0.0848
GCUGUUGGUACCAAUUUACCUUUACAGC [SHAPE_invitro_SARS-CoV-2_Motif_335],0.416,-0.037,0.215,-0.561
GCAAGCUUCGAUAAUUUUAAGUUUGU [SHAPE_invitro_SARS-CoV-2_Motif_120],1.04,0.402,0.816,-0.0709
GGGACUUAUGAUUAUCCC [IAV_invivo_HA_4_Motif_18+IAV_invivo_HA_4_Motif_18],0.293,0.126,-0.122,-0.911
GCCACGUAUAAACCAAAUACCUGGUGUAUACGUUGU,0.576,-0.377,0.17,-0.78
GGAAUUGCAAUGUCGAUAGAUAUCCUGCUAAUUCC [DMSMaPseq_invitro_SARS-CoV-2_Motif_342],-0.203,-0.418,-0.229,-0.212

Sequence,pull-down binding Z-score [1],pull-down binding Z-score [2],pull-down binding Z-score (TO-N3 (biotin conjugate)),pull-down binding Z-score [3]
UCUGAAGAAGUAGUGGAAAAUCCUACCAUACAGA [DMSMaPseq_invitro_SARS-CoV-2_Motif_122],-0.124,-0.226,0.657,0.514
AUUGUUCAACUUAGUGAAAUUAGUAUGGACAAU,0.851,0.243,0.606,-0.828
CCUGACUUAAAUGGUGAUGUGGUGGCUAUUGAUUAUAAACACUACACACCCUCUUUUAAGAAAGG,-0.161,0.00798,-0.206,-0.275
UCUUAAGAGAGGUGAUAAAAGUGUAUAUUACACUAGUAAUCCUACCACAUUCCACCUAGAUGGUGAAGUUAUCACCUUUGACAAUCUUAAGA,0.836,-0.0579,0.528,-0.559
UCAUCAGGAGAUGCCACAACUGCUUAUGCUAAUAGUGUUUUUAACAUUUGUCAAGCUGUCACGGCCAAUGUUAAUGCACUUUUAUCUACUGAUGG [DMSMaPseq_invitro_SARS-CoV-2_Multi_45_ComplexLevel_1],-0.641,-0.46,-0.561,-0.306
GCUCUACAAGAUGCUUAUUACAGAGC,1.83,0.467,1.52,-0.0957
UGACCAGUCUUCUUACAUCGUUGAUAGUGUUACAGUGAAGAAUGGUUCCAUCCAUCUUUACUUUGAUAAAGCUGGUCA,-0.506,-0.33,-0.675,-0.863
GUCUCUAUAGAAAUAGAGAU,0.213,-0.397,-0.156,-1.36
CAGGCCAUCACAAAUGCCACAGCUUGAGUAAACUGUGCAGCCUG [3-way model-2_DENV2],-0.433,-0.224,-0.464,-0.0801
AUGGUCUUUGUUCUUUUUUUUGUAUGAAAAUGCCUUUUUACCUUUUGCUAUGGGUAUUAUUGCUAU,-0.455,0.135,-0.507,-0.569
GUCGUUGACAGGACACGAGUAACUCGUCUAUCUUCUGCAGGCUGC [SARS-CoV-2-Conserved-Structured-34_Interval-80-197_Motif_3],-0.455,0.148,0.831,2.14
GUGCCAGCACAAAAUGCUAUAAGCAC [IAV_invivo_PB1_2_Motif_3+IAV_invivo_PB1_2_Motif_3],-0.871,-0.201,-1.07,-0.727
ACUAAAAUAAAACCUCAUAAUUCACAUGAAGGUAAAACAUUUUAUGUUUUACCUAAUGAUGACACUCUACGUGUUGAGGCUUUUGAGU [DMSMaPseq_invitro_SARS-CoV-2_Multi_18_ComplexLevel_1],-0.89,-0.146,-1.12,-1.02
AUAAUAAGAGGCUGGAUUUUUGGUACUACUUUAGAUUCGAAGACCCAGUCCCUACUUAUUGU,-0.735,-0.168,-0.881,-0.612
CCAGUAUCUGAAUUACUUACACCACUGGGCAUUGAUUUAGAUGAGUGGAGUAUGGCUACAUACUACUUAUUUGAUGAGUCUGGUGAGUUUAAAUUGG,-0.742,-0.468,-0.752,-0.946
UGGUACUAUCUAUACAGAACUGGAACCA [SHAPE_invitro_SARS-CoV-2_Motif_233],-0.352,-0.345,-0.445,-0.456
UGCAGAUUUGGAUGAUUUCUCCAAACAAUUGCA,0.0526,-0.117,-0.0544,-0.51
AUGAGAAGUGCUCUGCCUAUACAGUUGAACUCGGUACAGAAGUAAAUGAGUUCGCCUGUGUUGUGGCAGAUGCUGUCAU [SHAPE_invitro_SARS-CoV-2_Motif_53],-0.626,-0.278,0.461,2.07
CCGAAUACCAUAAUGAAUCUGGCUUGAAAACCAUUCUUCGUAAGGGUGGUCGCACUAUUGCCUUUGG [DMSMaPseq_invitro_SARS-CoV-2_Multi_5_ComplexLevel_1],-0.576,-0.063,-0.257,0.178
GUACAUGGGCACACUUUCUUAUGAACAAUUUAAGAAAGGUGUUCAGAUAC [DMSMaPseq_invitro_SARS-CoV-2_Motif_106],-0.377,0.0305,-0.353,-0.639
ACAUUACACCAUGU [SHAPE_invivo_SARS-CoV-2_Motif_439],-0.779,-0.6,-1.07,-0.865
